Measurements reported in patent US20250066503A1, “CELL INJURY INDUCING THERAPEUTIC DRUG FOR USE IN CANCER THERAPY” (CHUGAI SEIYAKU KABUSHIKI KAISHA, priority 2016, published 2025).

What was measured:
[1] = tested on: MKN74, FU-97, SNU-1, SCC152, KYSE70, PC-10, HuH-7, TOV-21G, RMG-1 and STM-03 xenograft tumors; assay: In vivo drug efficacy, NOD scid/T cell-injected model, xenograft tumors of various cancer types; set-up: species or system NOD scid mice; details: 1 mg/kg once through the tail vein; compared to the vehicle-administered group
Protocol: (§1) Methods called an NOD scid/T cell-injected model, a humanized NOG mouse model, and a human CD3εδγ gene-modified mouse model were used in the in vivo drug efficacy evaluation. Assay using an NOD scid/T cell-injected model was performed as follows. […] T cells expanded by culturing human PBMCs in vitro were injected into the NOD scid mice with confirmed tumor establishment. The mice were treated by administering bispecific antibody-38 and bispecific antibody-30, -31, -32, or -33. Assay using a humanized NOG mouse model was performed as follows. CD34-positive hematopoietic stem cells derived from umbilical cord blood were transplanted into NOG mice by tail vein injection. Human T cells are constantly supplied in the mice, which are called humanized NOG mice. The PC-10 cell line was transplanted into humanized NOG mice. The humanized NOG mice with confirmed establishment of PC-10 tumor were treated by administering antibody-38. Assay using a human CD3εδγ gene-modified mouse model was performed as follows. Cells of mouse-derived cell line forced to express human GPC3 were transplanted into a human CD3εδγ gene-modified mouse model, which had been prepared according to Reference Example 10. The human CD3εδγ gene-modified mice with confirmed tumor establishment were treated by administering antibody-38. […]

[2] = tested on: NCI-H446 tumor tissues; assay: Tumor infiltrating lymphocyte (TIL) analysis of tumor tissues; assay type: in vivo, humanized NOG mice; details: in combination with a chemotherapeutic agent, paclitaxel or capecitabine; sixth day after antibody-38 administration; compared to either alone
Protocol: (§2) The tumor samples were prepared as follows. The tumor samples when antibody-38 was used in combination with a chemotherapeutic agent in the humanized NOG mouse model were prepared by the procedure described below. 2.5 Gy of X ray was irradiated to NOG mice (In-Vivo Science Inc., Y). On the following day, 1×10^5 CD34-positive hematopoietic stem cells which are derived from umbilical cord blood were transplanted into the NOG mice by tail vein injection. After 16 to 20 weeks, each of human cancer cell lines (MKN45 and NCI-H446) was mixed with Matrigel™ Basement Membrane Matrix, and transplanted subcutaneously into the humanized NOG mice. The day of transplantation was defined as Day 0.
When tumor was established, the mice were separated into groups based on tumor size and body weight. Antibody-38 and the pharmaceutical agents for use in combination were administered according to the dose and dosing regimen described in Table 21. The mice were euthanized at the timing described in Table 21, and tumor was excised and preserved for use in tumor infiltrating lymphocyte (TIL) analysis, pathological analysis, or RNA analysis.
TIL analysis was performed as follows. Tumor tissues which were dissected from mice transplanted with NCI-H446 described in Table 21 on the sixth day after antibody-38 administration were dissociated into cells by enzyme treatment using gentle MACS™ Octo Dissociator. […]

[3] = tested on: LLC1/hGPC3 syngeneic tumor; assay: In vivo drug efficacy, human CD3εδγ gene-modified mouse model; set-up: species or system human CD3εδγ gene-modified mice; details: 5 mg/kg Day 11 and Day 14, compared to solvent group or anti-human GPC3, anti-mouse CTLA-4, PD-1, PD-L1 antibodies at 25 mg/kg
Protocol: as §1

[4] = tested on: MKN45 and NCI-H446 tumor tissues; assay: Comprehensive RNA analysis of tumor tissues using nCounter; assay type: in vivo, humanized NOG mice; details: in combination with paclitaxel or capecitabine; compared to antibody-38 or the chemotherapeutic agent alone
Protocol: RNA was extracted from tumor samples after administration of paclitaxel, cisplatin, or capecitabine and antibody-38. Comprehensive RNA analysis using nCounter, tumor infiltrating lymphocyte (TIL) analysis, and pathological analysis were performed as follows.
as §2
When tumor was established, the mice were separated into groups based on tumor size and body weight. Antibody-38 and the pharmaceutical agents for use in combination were administered according to the dose and dosing regimen described in Table 21. […]
RNA analysis was performed as follows. RNA was extracted (miRNeasy Mini Kit, QIAGEN) from the above-described tumor samples and the RNA concentrations were determined (NanoDrop, Thermo Fisher Scientific). […]

B1: antibody-38: anti-human CD3ε chain and anti-human GPC3 bispecific antibody; H chains SEQ ID NO: 385 and 402, common L chains SEQ ID NO: 410 (antibody)
heavy 1: QVQLVQSGAEVKKPGASVTVSCKASGYTFTDYEMHWIRQPPGEGLEWIGAIDGPTPDTAYSEKFKGRVTLTADKSTSTAYMELSSLTSEDTAVYYCTRFYSYTYWGQGTLVTVSSASTKGPSVFPLAPCSRSTSESTAALGCLVKDYFPEPVTVSWNSGALTSGVHTFPAVLQSSGLYSLSSVVTVPSSSLGTQTYTCNVDHKPSNTKVDKRVESKYGPPCPPCPAPEFRGGPKVFLFPPKPKDTLMISRTPEVTCVVVDVSQEDPEVQFNWYVDGVEVHNAKTKPREEQFASTYRVVSVLTVLHQDWLNGKEYKCKVSNKGLPSSIEKTISKAKGQPREPQVYTLPPSQEEMTKNQVSLTCLVKGFYPSDIAVEWESNGQPENNYKTTPPVLDSDGSFFLYSKLTVDKSRWQEGNVFSCSVMHEALHNHYTQESLSLSP
heavy 2: QVQLVESGGGVVQPGGSLRLSCAASGFTFSNAWMHWVRQAPGKGLEWVAQIKDKSQNYATYVAESVKGRFTISRADSKNSIYLQMNSLKTEDTAVYYCRYVHYAAGYGVDIWGQGTTVTVSSASTKGPSVFPLAPCSRSTSESTAALGCLVKDYFPEPVTVSWNSGALTSGVHTFPAVLQSSGLYSLSSVVTVPSSSLGTKTYTCNVDHKPSNTKVDKRVESKYGPPCPPCPAPEFRGGPKVFLFPPKPKDTLMISRTPEVTCVVVDVSQEDPEVQFNWYVDGVEVHNAKTKPREEQFASTYRVVSVLTVLHQDWLNGKEYKCKVSNKGLPSSIEKTISKAKGQPREPQVYTLPPSQKEMTKNQVSLTCLVKGFYPSDIAVEWESNGQPENNYKTTPPVLDSDGSFFLYSKLTVDKSRWQEGNVFSCSVMHEALHNHYTQKSLSLSP
light: DIVMTQSPLSLPVTPGEPASISCRSSQPLVHSNRNTYLHWYQQKPGQAPRLLIYKVSNRFSGVPDRFSGSGSGTDFTLKISRVEAEDVGVYYCGQGTQVPYTFGQGTKLEIKRTVAAPSVFIFPPSDEQLKSGTASVVCLLNNFYPREAKVQWKVDNALQSGNSQESVTEQDSKDSTYSLSSTLTLSKADYEKHKVYACEVTHQGLSSPVTKSFNRGEC
modifications: An artificially generated sequence
anti-tumor effect [1]: evident anti-tumor effect
cell populations expressing T cell markers, activated T cell markers, and proteins involved in cytotoxic activity [2]: increased
anti-tumor effect [3]: evident anti-tumor effect
expressions of genes involved in the progress of cell cycle [4]: suppressed
expressions of immune cell markers, chemokines, cytokines, genes involved in cell death, genes involved in cell cycle regulation [4]: increased
